Conditions in all cases: one partner purified
Assay [1] has as its target T1, TAP complex of MJS TAP1-GFP cells (TAP1-GFP with TAP2) ( | human (endogenous in MJS), UniProt Q03518;Q03519).
T1 construct: also called GFP-tagged TAP
T1 sequence 1: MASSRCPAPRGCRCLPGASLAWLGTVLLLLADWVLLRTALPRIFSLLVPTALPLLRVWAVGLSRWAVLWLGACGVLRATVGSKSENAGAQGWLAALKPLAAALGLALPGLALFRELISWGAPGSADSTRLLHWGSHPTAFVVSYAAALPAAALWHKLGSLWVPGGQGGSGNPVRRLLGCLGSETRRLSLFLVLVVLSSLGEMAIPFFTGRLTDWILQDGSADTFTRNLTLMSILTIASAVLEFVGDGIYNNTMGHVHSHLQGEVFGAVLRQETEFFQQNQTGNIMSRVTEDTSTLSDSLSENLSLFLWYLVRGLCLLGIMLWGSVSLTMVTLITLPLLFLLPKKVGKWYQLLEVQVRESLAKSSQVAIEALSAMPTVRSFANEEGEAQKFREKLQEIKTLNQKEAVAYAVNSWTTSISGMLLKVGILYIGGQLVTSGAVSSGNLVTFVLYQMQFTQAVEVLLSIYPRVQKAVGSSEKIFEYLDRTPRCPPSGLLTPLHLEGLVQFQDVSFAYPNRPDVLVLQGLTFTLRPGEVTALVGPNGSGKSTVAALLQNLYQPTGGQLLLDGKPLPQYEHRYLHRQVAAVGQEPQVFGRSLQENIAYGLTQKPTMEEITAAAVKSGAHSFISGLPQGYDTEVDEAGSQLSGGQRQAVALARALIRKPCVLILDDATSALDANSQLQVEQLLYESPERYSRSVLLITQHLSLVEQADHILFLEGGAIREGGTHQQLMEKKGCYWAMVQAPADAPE
T1 sequence 2: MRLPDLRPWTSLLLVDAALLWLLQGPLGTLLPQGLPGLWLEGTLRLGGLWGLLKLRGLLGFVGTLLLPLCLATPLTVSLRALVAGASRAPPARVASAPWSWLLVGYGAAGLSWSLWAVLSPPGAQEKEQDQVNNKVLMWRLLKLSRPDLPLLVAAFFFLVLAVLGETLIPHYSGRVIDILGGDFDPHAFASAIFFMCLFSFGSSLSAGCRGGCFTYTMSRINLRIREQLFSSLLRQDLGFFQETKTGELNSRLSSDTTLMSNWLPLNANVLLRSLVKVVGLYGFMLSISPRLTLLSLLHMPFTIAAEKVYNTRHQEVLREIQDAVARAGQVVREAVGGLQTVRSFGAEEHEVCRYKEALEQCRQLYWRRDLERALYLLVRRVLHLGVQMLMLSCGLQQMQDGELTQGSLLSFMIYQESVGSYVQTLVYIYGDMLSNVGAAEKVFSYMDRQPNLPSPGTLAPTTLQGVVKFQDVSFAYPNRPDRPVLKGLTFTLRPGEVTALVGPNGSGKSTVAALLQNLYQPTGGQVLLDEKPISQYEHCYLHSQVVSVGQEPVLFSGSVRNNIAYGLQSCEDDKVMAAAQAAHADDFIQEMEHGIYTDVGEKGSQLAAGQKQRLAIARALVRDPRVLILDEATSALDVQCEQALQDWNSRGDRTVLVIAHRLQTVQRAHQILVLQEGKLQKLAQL
Nature of the assay: radioligand binding; as a2, but microsomes of MJS TAP1-GFP cells that express EHV-1 UL49.5.

The target in assay [2] is T1, TAP complex of MJS TAP1-GFP cells …. The assay can be described thus: radioligand binding; microsomes of control MJS TAP1-GFP cells incubated on ice with increasing concentrations of RR[125I]YQKSTEL in AP buffer (5 mM MgCl2 in PBS, pH 7.0); corrected for the signal with 200-fold excess of ICP47; triplicate.
Assay [3] shares this target. Nature of the assay: radioligand binding.

Kd data for 1 molecule are collected here from PMC2386557, “Varicellovirus UL49.5 Proteins Differentially Affect the Function of the Transporter Associated with Antigen Processing, TAP” (PLoS Pathogens, 2008).

Where no end group is shown, it is not given here. The star is where a group is joined. 125I = [125I]*

B1: radiolabeled reporter peptide RR[125I]YQKSTEL (peptide)
peptide: RRY(125I)QKSTEL
notes: also called ^125I-labeled reporter peptide; radiolabeled peptide
For B1, the equilibrium dissociation constant (Kd) (commonly the free concentration of one partner at which half of the binding sites on the other are occupied at equilibrium, for simple one-to-one binding) in assay [1] came out at 236 ± 71 nM; in assay [2], 277 ± 58 nM; in assay [3] it was 351 ± 42 nM.
